In patent US20220349876A1, “USE OF DKK1 INHIBITOR IN PREVENTION AND/OR TREATMENT OF TUMOR CACHEXIA AND DISEASES ASSOCIATED WITH DIABETES” (SHANGHAI DONGTSU BIOSCIENCES CO., LTD., priority 2019, published 2022):

Key:
CT26 tumor-bearing mice = assay: Survival of CT26 tumor-bearing mice (Kaplan-Meier); settings: mouse, in vivo, ip
β-arrestin1/2 = β-arrestin1/2 translocation in HUVEC cells (Western blot); format: cell-based; settings: Dkk1 stimulation alone
Procedure: (§1) (5) Add 100 μl (cell) or 200 μl (tissue) A solution to each sample, and resuspend the cell pellet with a pipette to completely disperse the pellet. The tissue pellet should be fully homogenized on ice with a homogenizer, and the ice bath should be used for 15 min.
(§2) (10) Add 50 μl (cells) or 100 μl (tissue) B solution to each sample, resuspend the pellet in Vortex at the highest speed for 10 s, ice bath for 10 min, and repeat twice to fully extract membrane proteins.
(§3) Protein electrophoresis gels are double-layered gels, including an upper stacking gel and a lower separating gel. The concentration of the stacking gel is 5%, and the concentration of the separating gel is determined according to the molecular weight of the target protein. In this study, large molecular weight proteins (LRP5/6, β-catenin, β-arrestin1/2) used 8%-5% double-layer gel, and small molecular weight proteins (γH2AX, p53, p21, Bcl-2, Bax, Cleaved Caspase-3) used 12%-5% double-layer gel. In addition, the number of wells (10 wells or 15 wells) and thickness (1 mm or 1.5 mm) of the preparation gel were selected according to the number and volume of protein samples loaded. The gel formulation is shown in the experimental material section, and the preparation steps are as follows: […]

[1] = test system: GPCR signaling pathways and cachexia-related pathways; assay: RNA-Seq analysis of quadriceps femoris; format: in vivo, mouse; settings: direct intramuscular injection of Dkk1 protein into the lower limbs
Procedure: Total RNA was extracted using Trizol kit (Lige technology), RNA sequencing library was constructed from the extracted RNA using Illlumina library preparation protocol, RNA-seq was performed on Illlumina HiSeq4000 platform, using two-terminal protocol, the length of both regions was 150 bp. Sequencing reads were aligned to annotated mouse transcripts (mm10) using hisat2 (v2.1.0). Using GFOLD (v1.1.4) to calculate the gene expression level and has found differentially expressed genes. The parameters are as follows: GFOLD value≠0, and the changing value of the two samples is ≥1.35. The RNA-seq data collector GSE121873 was uploaded to the gene expression comprehensive database. KEGG pathway analysis was performed on the defined genes.

wild-type mice heart = assay: Local injection of Dkk1 protein into the heart combined with MDC or BIM-46187; format: in vivo, mouse
Procedure: In the experiment of local injection of Dkk1 purified protein into the heart combined with MDC intervention, 10-week-old wild-type male mice were selected, the left chest was depilated, and intraperitoneal injection of MDC (diluted in sterile PBS, 10 mg/kg) or the corresponding volume of DMSO (diluted in sterile PBS) and injected at the same time every day thereafter. After 1 h of MDC intervention, cardiac Dkk1 protein injection was performed. The mice were given continuous inhalation anesthesia with 1% isoflurane and oxygenated with a ventilator, and then the fourth intercostal space near the sternum was opened to expose the heart. Using a 200 μl microsyringe, Dkk1 (10 μg of Dkk1 per heart, dissolved in 30 μl PBS) or an equal volume of PBS was injected locally at three sites in the heart. Of these, two sites are on the border around the left ventricle, and one site enters the myocardium of the left ventricle. After the injection, the wound was sutured, the anesthesia was removed, and the mice were awake. After MDC was continuously intervened for 2 days, the mice were anesthetized and the materials were collected.
In addition to injecting Dkk1 protein alone into the heart, we also need to perform experiments of local injection of Dkk1 combined with BIM-46187 into mouse hearts. According to the experimental grouping, it was divided into cardiac injections of four different solutions, including PBS, Dkk1, BIM-46187, and a mixture of Dkk1 and BIM-46187. The dosage of Dkk1 per heart is 10 μg, and the dosage of BIM-46187 is 2.4 ng, diluted with 30 μl PBS and then injected into the heart. The specific operation steps are the same as above. After the injection, the wound was sutured, the anesthesia was removed, and the mice were awake. Two days after the injection, the mice were anesthetized and the materials were collected.

LRP6 and Kremen2 = assay: Intramuscular injection of Dkk1, Western blot of membrane LRP6 and Kremen2; format: in vivo, mouse; settings: Dkk1 alone, lower limbs of normal mice
Procedure: Wild-type mice and β-arrestin2+/−KO mice were injected into the left quadriceps (0.25 mg/kg) and an equal volume of PBS was injected into the right leg as controls. MDC (10 mg/kg), IGFBP-4/H95P (1.7 mg/kg) or PBS were injected in combination with Dkk1 as a control to observe the effects of drugs on Dkk1-induced signal transduction. After 48 hours, the mice were sacrificed, and the left and right quadriceps were taken to measure the […].
Membrane proteins were extracted according to the instructions of Membrane Protein Extraction Kit (Sangon Biotech, China). Western blot analysis omitted. Antibodies for WB analysis were purchased from Cell Signaling Technology and Proteintech.

LRP5/6 = assay: Membrane LRP5/6 endocytosis and nuclear β-catenin in HUVEC cells (Western blot); format: cell-based
Procedure: as §1, §2
(11) Aspirate the residual supernatant completely, and add 50 μl of nuclear protein extract to each sample.
as §3

HUVEC cells = assay: γH2AX DNA damage response in HUVEC cells (Western blot); format: cell-based; settings: Dkk1 100 ng/ml
Procedure: (2) The transfection system of a 3.5 cm petri dish was prepared as follows: 1 μl of siRNA Oligo/Red (concentration of the original solution was 20 μM) was added to an EP tube containing 250 μl of pure Opti-MEM and mixed, and 1.5 μl of RNAiMAX (transfection Reagent) was added to the flow tube containing 250 μl of pure Opti-MEM and mixed, and then all the liquid in the EP tube was added to the flow tube and mixed, and allowed to stand at room temperature for 15 min.
(3) The prepared transfection system was added to a 3.5 cm culture dish, and the cells were cultured for 24-48 h, then the samples were collected and the total cell protein was extracted, and the knockdown effect of the gene was identified by Western Blotting.
(3) Add 150 μl of total protein lysate to each cell sample to make the lysate fully contact with the cells, scrape off the cell lysate with a scraper, collect it into a pre-cooled EP tube, and take an ice bath for 15 min.
as §3

B1: Dkk1: recombinant mouse Dkk1 protein purchased from Genscript; secreted protein inducing LRP5/6 endocytosis (protein)
chain: TLNSVLINSNAIKNLPPPLGGAGGQPGSAVSVAPGVLYEGGNKYQTLDNYQPYPCAEDEECGSDEYCSSPSRGAAGVGGVQICLACRKRRKRCMRHAMCCPGNYCKNGICMPSDHSHFPRGEIEESIIENLGNDHNAAAGDGYPRRTTLTSKIYHTKGQEGSVCLRSSDCAAGLCCARHFWSKICKPVLKEGQVCTKHKRKGSHGLEIFQRCYCGEGLACRIQKDHHQASNSSRLHTCQRH
With B1 the “survival of tumor-bearing mice” value (CT26 tumor-bearing mice) was “significantly shorten the survival period of tumor-bearing mice”, the “β-arrestin1/2 translocation (cytoplasm / cell membrane)” value (β-arrestin1/2) was “rapidly up-regulate β-arrestin1/2 in HUVEC cytoplasm and down-regulate β-arrestin1/2 on the cell membrane” and the “activation of GPCR signaling pathways and cachexia-related pathways” value [1] was “immediately led to the activation of GPCR signaling pathways and cachexia-related pathways”. The “cardiac membrane LRP5/6, γH2AX, p53, p21 and β-catenin signaling” value (wild-type mice heart; Dkk1 purified protein injected into myocardium, alone) was “directly induce the down-regulation of LRP5/6 and the up-regulation of γH2AX, p53 and p21 on the cardiac membrane without affecting β-catenin signaling”, the “cardiac β-arrestin1/2 translocation” value (wild-type mice heart; direct injection of Dkk1 into the heart, alone) was “induces down-regulation of membrane β-arrestin1/2 and plasma β-arrestin1/2 and nuclear β-arrestin1 are up-regulated” and the “translocation of insulin receptors in cardiac cells” value (wild-type mice heart; direct injection of Dkk1 protein) was “do not undergo translocation changes”. The “membrane LRP6 and Kremen2 after intramuscular injection of Dkk1” value (LRP6 and Kremen2) was “causes the endocytosis of LRP6 and Kremen2 on the membrane”, the “time after which nuclear β-catenin is down-regulated” value (LRP5/6; Dkk1 100 ng/ml) was 60 min and the “time from which endocytosis of LRP5 on the cell membrane is induced” value (LRP5/6; Dkk1 100 ng/ml) was 15 min. The “time from which endocytosis of LRP6 on the cell membrane is induced” value (LRP5/6; Dkk1 100 ng/ml) was 5 min, the “nuclear β-catenin expression within 30 min” value (LRP5/6; higher doses of Dkk1) was “does not down-regulate nuclear β-catenin expression” and the “time of peak γH2AX activation” value (HUVEC cells) was 15 min. For the same molecule, the “time to significant γH2AX activation” value (HUVEC cells) was ≤ 5 min.
